Experimental data from patent publication US20240181074A1, “PEGYLATED T CELL ENGAGER WITH DUAL SPECIFICITIES TO CD3 AND CD19” (Shenzhen Enduring Biotech, Ltd., priority 2021, published 2024).

How the values were obtained:
EAE model mice = test: EAE model, head-to-head comparison of JY108 to MEDI-551 (Example 9); type: in vivo
Protocol: MEDI-551 (Inebilizumab) is an anti-CD19 monoclonal antibody currently under clinical trial for treating MS. […] For head-to-head comparison, EAE model in this experiment were constructed in the same way as described in Example 8 and MEDI-551 treated group (a single i.v. injection of 250 μg/animal) was included in the experiment. On Day 12 after generation of the EAE model, the male animals were randomly grouped into 4 groups (n=7): MEDI-551 treated group, model group (control), two groups treated with JY108 at 60 μg/animal and at 80 μg/animal with 5 doses in total (Day 14, Day 15, Day 17, Day 19 and Day 21). The clinical scores were recorded for each animal on daily basis (except Day 18). Female mice were grouped similarly (n=7) after day 11 of EAE induction and treated with JY108 (30, 50, 75 μg/animal) and MEDI551 (250 μg/animal).

CD19^+ B cells = test: Spleen B cells in the EAE experiment (flow cytometry); type: in vivo, mice; details: day 15, MEDI-551 treated group
From the text: To better illustrate the mechanism of JY108 in ameliorating EAE symptoms, the spleen B cells in the EAE experiment were examined on day 15, using the same method described in Example 9.

Breg cells = Breg cells in spleen of EAE animals (PE-anti-CD19 / FITC-B10 flow cytometry); type: in vivo, mice
From the text: The seemed contradictory results prompted us to see what happened to other related immune cells after JY108 treatment. Using the method described in Example 5, the spleen cells derived from the animals in the EAE experiment were double stained with PE-anti-CD19 and FITC-B10 (a marker for Breg) and counted via flowcytometry.

MOG specific B cells = test: ELISPOT of residual MOG specific B cells in spinal cord; type: in vivo, mice
Protocol: Since MOG specific B cells are the major source of autoantibodies for CNS myelination damage, ELISPOT was performed by following the protocol provided by the vendor's manual to compare the residual MOG specific B cells in the spinal cord of the tested animals.

EAE model = details: cited from earlier work

B1: MEDI-551: anti-CD19 monoclonal antibody currently under clinical trial for treating MS (antibody, chains of the INN, looked up, V domains shown)
VH: EVQLVESGGGLVQPGGSLRLSCAASGFTFSSSWMNWVRQAPGKGLEWVGRIYPGDGDTNYNVKFKGRFTISRDDSKNSLYLQMNSLKTEDTAVYYCARSGFITTVRDFDYWGQGTLVTVSS
VL: EIVLTQSPDFQSVTPKEKVTITCRASESVDTFGISFMNWFQQKPDQSPKLLIHEASNQGSGVPSRFSGSGSGTDFTLTINSLEAEDAATYYCQQSKEVPFTFGGGTKVEIK
**Q.** With B1 as the molecule, how does the “EAE symptoms (clinical score)” value (EAE model mice; female mice, 250 μg/animal) read?
**A.** not effective

**Q.** What about the “EAE symptoms (clinical score)” value (EAE model mice; male mice, single i.v. 250 μg/animal on day 14) of the same molecule?
**A.** did not show any therapeutic effect

**Q.** What about the “CD19^+ B cells in spleen” value (CD19^+ B cells) of the same molecule?
**A.** almost completely eliminated

**Q.** What about the “effect on Breg cells” value (Breg cells) of the same molecule?
**A.** little effect

**Q.** What about the “MOG specific B cells in the spinal cord” value (MOG specific B cells) of the same molecule?
**A.** depleted MOG specific B cells effectively

**Q.** What about the “EAE symptoms of male mice” value (EAE model; administered on day 7 after EAE induction (Chen 2014)) of the same molecule?
**A.** able to delay the EAE symptoms

**Q.** And the “efficacy in EAE model versus anti-CD20 antibody” value (EAE model; pre-clinical results)?
**A.** more effective than marketed monoclonal anti-CD20 antibody
